Measured values reported in the nanobody polyreactivity screen of Harvey et al. (2022).

Assay: yeast display, Sf9 membrane polyspecificity reagent, FACS + sequencing; frameworks hold sequencing errors
Summary of the method: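 Nanobodies from a synthetic yeast display library (Saccharomyces cerevisiae BJ5465), induced 36–48 hours with galactose, were stained 1 hour at 4 °C with 10% biotinylated, detergent-solubilized Sf9 membrane reagent, enriched on streptavidin microbeads, then FACS-sorted. Anti-HA (expression) and streptavidin (reagent binding) fluorescence set low and high (top ~1%) gates. Polyreactivity labels come from the gate of origin. Genes were colony-PCR amplified, MiSeq 2 × 250 sequenced and filtered by CDR length.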

Sequence	polyreactivity (PSR sort gate)
QVQIVESGGGLVQAGGSLRLSCAASGSIFRYNAMGWYRQARGKERELVAAITSGDSTYYADSVKGRFTISRDNAKNTVYLQMNSLKPEDTAVYYCAVTTWANTQWEEYWGHGTQVTVSS	low polyreactivity
QVQLVESGGGLVQAGGSLRLSCAASGLTFSNYAMGWYRQAPGKEREFVAAISASGGSTYYAHSVKGRFTISRDYAKNTVYLQMNRLTPEDTAVYYCAASTTRPVYPANDDYWGQGTQVTVSS	low polyreactivity
QVQLVESGGGLVQAGGSLRLSCAASGSIFYYYAMGWYRQAPGKERELVAAITVSGGRTYYADSVKGRFTISRDNAKNTVYLQMNSLKPEATAVYYCAAQIYGKYDYWGQGTQVTVSS	low polyreactivity
QVQHVESGGGLVQAGGSLSLSCAASGSTFKHYAMGWYRQAPGKERELVAAISSRGGSTHYADSVKGRFRISRDNAKNTVYLQMNSLKPEDTAVYYCARDTDPQSSRSSDYDYWGQGTQVTVSS	low polyreactivity
QVQLVESGGGLVQAGGSLRLSCAAYGSTFSLNTMGWYRQAPGKERELVAAITSGGSTNYADSVKGRFTISRDNAKNTVYLQMNSLKPEDTSVYYCAATPGRGGGYNYWGQGTQVTVSS	low polyreactivity
QVQLVESGGGLVQAGGSLRLSCAASGSTFRTYAMGWYRQAPGKERDLVASIDSTGSTNYADSVKGRFTISRDNAKNTVYLQMNSLKPEDTAVYYCAAETYSDPPFYAYDYWGQGTQVTVSS	low polyreactivity
QVQLVETGGGLVQAGGSLRLSCAASGSIAFNAMGWYTQAPGKERELVAAITWRVGSTYYADSVKGRFTISRDNAMNTVDLQMHSLKTEDTAVYYCAARRTAGAYYGYNYWGQGTQVTVSS	high polyreactivity
QVQLVESGGGLVQAGGSLRLSCAASGRIFGRNTMGWYRQAPGKERELVAVISWRGGSTYYADSVKGRFTISRDNAKNTVYLQMNSLKPEDTAVYDCNPKYPFSRRGDYWGQGTQVTVSS	high polyreactivity
QVQLQESGGGLVQAGGSLRLSCAASGTISYGSVMGWYRQAPGKERELDAGIGYGSTTNYADSVKGRFTISRDNAKNTVYLQMNSLKPDDTAVYYCARDLYYVYSFAPYRYEYWGHGTQVTVSS	low polyreactivity
QVQLVESGGGLVQAGGSLRLSCAASGSTFVHYAMGWYRQAPGKEREFVASITRSGTSTYYADSVKGRFTISRDNAKNNVYLQMNSLKPEDTAVYYCNAELLGARQYWYYRYYYWGQGTQVTVSS	high polyreactivity
QVHLVESGGGLVQAGGSLRLSCAASGSTFPYYDMGWYRQAPGKERELVAAITYNGGNTYYADSVKGRFTISRDNAKNTVYLQMNSLKPEDTAVYYCAADGTLARLYYWATGDEDGYWGQGTQVTVSS	low polyreactivity
QVQLVESGGGLVQAGGSLRLSCAASGRIFVQNAMGWYRQAPGKERELVAAINWSVGSTYYADSVKGRFTISRDNAKNTVYLQMNSLKPEDTAVYYCAAGNLYYAEYDYWGQGTQVTVSS	low polyreactivity
QVQLVESGGGLVQAGGSLRLSCAASGRIFDLYTMGWYRQAPGKERELVAAITSSGDSTYYADSVKGRFTISRDNAKNTVYLQMNSLKPEDTAVYYCAAESKYWEPWWYYYYDMDYWGQGTQVTVSS	low polyreactivity
QVQLVESGGGLVQAGGSLRLSCAASGRTFPRYAMGWYRQAPGKERELVAGISWSGGRTYYADSVKGRFTISRDNAKNTVYLQMNSLKPEDTAVYYCAVVSKNLSYRTTFYYWGQGTQVTVSS	high polyreactivity
QVQLVESGGGLVQAGGCLRLSCAASVRTFYYYAMGWYRQAPGKEMELVAAITSTGGSTYYADSVKGRFTISRDNAKNTVYLQMNSLKPEDTAVYYCNTDPYTTQWYTTWFEYWGQGTQVTVSS	low polyreactivity
QVQLVESGGGLVQAGGSLRLSCAASGLTFRDNAMGWYRQAPGTERELVATMNSGGSTDYADSVKGRFTISRHNAKNTVYLQMNSLKPEDTAVYYCAVYREYYDRGWYSIFYWYDYWGQGTQVTVSS	low polyreactivity
QVQLVESGGGLVQAGGSLRLSCAASGYIFGGYAMGWYRQATGKERELVPGISIGVGSTYYADSVKGRFTISRDNAKNTVYLQMNSLKPEDSAVYYCNRVSVGYDYWGQGTQVTVSS	low polyreactivity
QVHLVESWGGLVQAGGSLRLSCSASGITFDEYTIGWYRQAPGKERELVAAIDSDGSTTYADSVKVRFTISRDNAKNTVYLQMNILKPEDTEVYYCNAEHGDFCWHYLLYDYDYWGQGTQVTVSS	low polyreactivity
QVQLVESGGGLVQAGGSLRLSCAASRSTFPKYAMGWNRKAPGKERELVASISVTTGSPYYADSVKGRFTISLDNAKNTVYLQKNSLKPEDTAVYYCAKRTYSRKFRGAYNYWGQGTQVSVSS	high polyreactivity
QVQLVESGGGLVQAGGSLRLSCAASGRNFYHYAMGWYRQAPGKEREFVAAISVSGGRTYYADSVKGRFTISRDNAKNTVYLQMNSLKPEDTAVYYCAAEPEWPYGRFDYWGQGTQVTVSS	high polyreactivity
QVQLVESGGGLVQAGGSLRLSCAASGSIFFVYAMGWYRQAPGKERELVAGISGRDGSTYYADSVKGRFTISRDNAKNTVYLQMNSLKPEDTAVYYSARVYWGQGTQVTVSS	low polyreactivity
QVQLVESGGGLVQAGGSLRLSCAASGITFDSNTKGWYRPAPGKEREFVATISYSGGSTYYADSVKGRFTISRDNAKNTVYFQMNSLKPEDTAVYYCHADYYGGPTMQYGYLWYDYWGEGTQVTVSS	low polyreactivity

Sequence	polyreactivity (PSR sort gate)
QVQLVESGGGLVQAGGSLRLSCAASGSTFGRNTMGWYRPAPGKERELVASITRSSTSTYYADSVKGRFTISRDNAKNTVYLQMNSLKPEDTAVYYCAARALRTDRSPVGRHEYWGQGTQVTVSS	low polyreactivity
KVQLVESGGGLVQAGGSLRLSCAATGRIFRPKAMGCYIQAPGKEREMVAAIRSTVGSTFYEYSVKGRFSISRDNAKNTVYLEMNRLKREDTAVYYCAGGTSRQFYYWGQGTQVTVSS	low polyreactivity
QVQLVQSGGGLVQAGGSLRLSCADSGSIFEYYTMGWYRQAPGKERELVAAISDGGSTYYADSVKGRFTISRDNAKNTVYLQMYSLKPEDTAVYYCAAEYQQDFWVAVDYWGQGTQVSVSS	low polyreactivity
QVQLVESGGGLVQAGGSLRLSCAASGSTFRIYAMGWYRQAPGKERELVAAISKRGGSTYYADSVKGRFTISRDNAKNTVYLQMNSLKPEDTAVYYCAKPPYSQYEFDYWGQGTQVTVSS	high polyreactivity
QVQLVESGGGLVQAGGSLRLSCAASGRTFDDYPMGWYRQAPGKDSELVAAITRRGGSTYYADSVKGRFTISRDNAKNTVYLQMNSLNPEDTAVYYCAADLFFKARGYDYWGQGTQVTVST	high polyreactivity
QVQLVESGGGLVQAGGSLRLSCAASGRIFARNAMGWYRQAPGKERELVAAITYSGGSTYYADSVKGRFTISRDNAKNTVYLQMNSLKPEDTAVYYCAAETSNRGRRYYYWGQGTQVTVSS	high polyreactivity
QVQLVESGGGLVHAGGSLRLSCAASGNTFIRYAIGWYRQARGTQRELVASITKRCGSTYYADSVKGRFTISRDNAKNTVYLQMNCLKPEDTAVYYCDRGPSGTPIGNTPYGDNRYNSWGEGTQVTVSS	low polyreactivity
QVQLVESGGGLVQAGGSLRLSCAASGRTFSKYAMGWYRQAPGKERELVAAISKRGDSTYYADSVKGRFTISRDNAKNTVYLQMNSLKPEDTAVYYCARDDYRAYKSYYRYGYWGQGTQVTVSS	low polyreactivity
QVQLVESGGGLVQAGGSLRISCAASGSTFYYNAMGWYRQAPGKERELVAAISYSGGRTYYADSLTGRFTISRDNAKNTVYLQMNSLKPEDTAVYYCATGQPILALRYAYGYWGQGTQVTVSS	low polyreactivity
QVQLVESVGGLVQAGGSLRLSCASSGRIFRGNAMGWYRQAPGKERELVAAINSRGTHTYYADSVKGRFTISRDNAKNTVYLQMNSLKPEDTAVYYCAATWTQPQPGYYAYYYWGQGTQVSVSS	high polyreactivity
QVQLVESGGGLVQAGGSLRLSCAASGFTFYLYVMGWYRQAPGTEREFVAAITGSGTSTYYADSVKGRFTISRDNAKNTVYLQMNSLKPEDTAVYYCNAKRDRYFYTVKYDYWGQGTQVTVSS	low polyreactivity
QVQLVESGGGLVQAGGSLRLSCAASGRIFWYYAMGGYRQAPGKEREFVATINTSGGSTYYADSLKGRFTISRDYARSTVCLQMNSLTPEDTAVYYCYAACRYYRTEYYSWGQGTQVTVSS	low polyreactivity
QVQLVESGGGLVQAGGSLRLSCAASGSIFNYYAMGRYRQAPGKERELVAAIETTGGSTYYADSVKGRFTISRDNAKNTVYLQMNSLKPEDTAVYYCAATWAKPWYYEYDYWGQGTQVTVSS	low polyreactivity
LVQLQESGGGLVQAGGSLRLSCAASGTISPGGYMGWYRQAPGKERELVASINVGGSTNYADSVKGRFTISRDNAKNTVYLQMKSLKPEDNAVYYCAVWGRNRLQLSYWGQGTQVTVSS	low polyreactivity
QVQLVETRGGLVQAGGSLRFSCAPSGRISLIYDMGWYRQAPAKERELVASITWSGDSTYYADSVKGRFTNSRDNAKNTVYLQMNSLKPVDTAVYYCAAVCWTYEYWEWYDYWGQVTQVTVSS	high polyreactivity
QVQLVESGGGLVQAGGSLRLSCAASGSTLRPYGMGWYRQAPGKERELVATIRSSSGRTYYADSVKGRFTISRDNAKNTVYLQMNSLKPEDTAVYYCARRYITNIKYDYWGQGTQVTVSS	high polyreactivity
QVQLVESGGGLVQAGGSLRLSCAASGRTFSYYAMGWYREAPGNERELVAAITTGGRTYYADSVKGRFTISRDNAKNTVYLQMNSLKPEDTAVYYCAADYTVSYPYYEYYYWGQGTQVTVSS	high polyreactivity
QVQLVESGGGLVQAGGSLRLSCAASGSTFWSNVMGWYRQAPGKESELVSAISYGGVTTSYADSVKGRFTISRDNAKNTVYLQKNSLKPEDTAVYYCATDYVGYYFYVSDYWGQGTQVTVSS	low polyreactivity
QVQLVESGGCLVQAGGSLRLSCAASGRTFSLYAMGWYRQEPGQERELVASITDSTGGSTYYADSVKGRFTLSRDNAKNTVYLQMNSLKPEDTAVYYCAAQDYQYSDYQWWFGYWGLGTQVTVSS	low polyreactivity
QVQLVESGGGLVQAGGSLRLICAASGRTFKYKAMGWSRQAPGKERELVAVISRGGSTYADSVKGRFTISRDNAKNTVYLQMNSLKAEDTAVYYCAVGRNSRQASERYGWYKYDYWGQGTQVTVSS	high polyreactivity
QVQLVESGGGLVQAGGSLRLSCAASGSIFYANVKGWSRQAPGKERELDATISISSSTNYADSVKGRFTISRDNAKNTVYLQMNSLKPEDTAVYYCNASFGHHYSYWVDTSYDYWGQGTQVTVSS	low polyreactivity
